Data taken from patent US10501502B2, “Allophycocyanin alpha-subunit evolved labeling proteins (smURFPs)” (The Regents of the University of California, priority 2016, dated 2019).

Legend:
HT1080 tumor xenografts = assay: Fluorescence imaging of HT1080 tumor xenografts in vivo; design: species or system mice
Source text: HT1080 cells were infected with CMV with smURFP-T2A-mCherry, smURFP-T2A-mCardinal, smURFP, and mCardinal lentiviruses in culture, and expression was verified by fluorescence imaging (FIG. 19a, ≥99% efficiency and FIG. 20a, ≥95% efficiency) using filters described in the previous section. All procedures using mice were approved by UCSD IACUC (#S03172M) and are consistent with the recommendations of the American Veterinary Medical Association. One million HT1080 cells expressing smURFP-T2A-mCherry were injected subcutaneously into the lateral, ventral, and upper right and left quadrant, or smURFP and mCardinal were injected subcutaneously into the lateral, dorsal, and lower right and left quadrant of four 5-week-old athymic nude female mice. Tumors were allowed to grow until ˜0.1-1 cm in diameter (˜2 weeks). Mice were anesthetized with isoflurane (1.5%) at a 2 liter/min flow, injected with ketamine-midazolam (intraperitoneal (IP), 80 mg/kg, 4 mg/kg), placed on a heated pad, and imaged before exogenous BV injection. 250 nmol BV was injected by intravenous (IV) tail vein, and mice were imaged 5, 30, 60, and 120 min after BV injection for smURFP-T2A-mCherry. 250 nmol BV or BVMe2 was injected by intravenous tail vein, and mice were imaged 60 min, 24 h, and 48 h after BV injection for smURFP and mCardinal tumors. Mice were imaged using a Maestro in vivo Imaging System (Cambridge Research & Instrumentation, CRI). FPs were imaged with the following filters: mCherry, EX/EM=590(23)/615LP nm and liquid crystal, 620 nm; mCardinal EX/EM=607(36)645LP nm and liquid crystal, 660 nm; and smURFP EX/EM=620(20)/645LP nm or EX/EM=640(47)/700LP and liquid crystal, 710 nm. […] Tumors were removed, washed 2× in 2 ml DMEM+10% FBS, labeled in 2 ml DMEM+10% FBS+10 μM BV or BVMe2 at 4° C. for 24 h, imaged, labeled in 2 ml DMEM+10% FBS+10 μM BV or BVMe2 at 37° C. for 24 h, and imaged (FIG. 20g).

Escherichia coli = assay: Fluorescence of FPs expressed in Escherichia coli; assay type: cell-based
Method: TeAPCα gene (codons optimized for Escherichia coli) was made by GenScript. Mutations were placed by random mutagenesis using GeneMorphII Random Mutagenesis Kit (Agilent Technologies). Screens for mutants that fluoresce with PCB or BV were performed by subcloning into a pBAD vector (Life Technologies) that expressed cyanobacteria Synechocystis HO-1 and Synechocystis PcyA genes for PCB production and Synechocystis HO-1 only for BV production, as previously described^34. Libraries were expressed in TOP 10 Electrocompetent Escherichia coli cells (Life Technologies) with addition of 0.2% arabinose to LB agar plates (FPs were constitutively expressed in Escherichia coli). Fluorescence was imaged on plates using a BioSpectrum AC Imaging System (UVP) with EX/EM=628(40)/690(50) nm for FPs+PCB, EX/EM=685(40)/710LP nm for rounds 4 and 5 FPs+BV, and EX/EM=650(13)/690(50) nm for Cy5-like FPs+BV (rounds 6-12). At round 6, 5-10 of the brightest colonies on each plate were combined in LB+0.2% arabinose, grown ˜18 h, mixture of plasmid DNA was purified, and TOP10 cells were transformed and plated on LB agar plates+0.2% arabinose. Fluorescence was screened on plates (as described above), 10-20 of the brightest colonies were screened in liquid culture fluorescence (FIG. 7a-e), plasmid DNA was purified, and DNA was sequenced. The plasmid DNA of 2-3 of the brightest FPs was chosen for mutagenesis for the subsequent round. When choosing DNA for subsequent mutagenesis rounds, genes with increased and/or novel silent DNA mutations were chosen over other DNA that had the same DNA and/or protein sequence of the previous round. Site-specific mutagenesis was performed using QuikChange Lightning Mutagenesis Kit (Agilent Technologies) to create smURFP (C4S mutation) and smURFP C52S.

primary cortical neurons = assay: Rat primary neuronal cultures transduced with smURFP T2A mCherry lentivirus; assay type: cell-based; conditions: 15 d after transduction
Source text: smURFP-T2A-mCherry (GenBank AY678264), smURFP-T2A-mCardinal, smURFP, and mCardinal (Addgene 51311) were subcloned in a generation-two lentiviral vector with the CMV promoter for constitutive expression. Viruses were produced as described^45. The procedures for extracting cultured neurons from rat pups were approved by the UCSD Institutional Animal Care and Use Committee (IACUC, #503172R) and are consistent with the recommendations of the American Veterinary Medical Association. Primary cortical neurons were dissociated by papain from postnatal day 2 Sprague Dawley rats (n=6) of either sex and combined, plated on poly-D-lysine-coated glass-bottom culture dishes (MatTek, #P35G-0-14-C), and cultured in Neurobasal A medium+1×B27 supplement (Life Technologies)+2 mM GlutaMAX (Life Technologies)+1×penicillin-streptomycin (Fisher Scientific). Prior to fluorescence imaging, 25 μM BV was added for 10 min, removed, and washed with 2×2 ml Hank's Balanced Salt Solution (HBSS, Life Technologies)+2 g/L glucose+20 mM HEPES (pH 7.4), referred to as imaging solution. Fluorescence imaging was performed in vitro 15 d after infection using a Zeiss Axiovert 200M inverted microscope controlled by SlideBook software. FPs were imaged as follows: smURFP and TDsmURFP, EX/EM=628(40)/680(30) nm; and mCherry, EX/EM=580(20)/653(95) nm.

B1: smURFP: small ultra-red fluorescent protein, SEQ ID NO: 13, homodimer, covalently attaches biliverdin (protein)
chain: MKTSEQRVNIATLLTENKKKIVDKASQDLWRRHPDLIAPGGIAFSQRDRALCLRDYGWFLHLITFCLLAGDKGPIESIGLISIREMYNSLGVPVPAMMESIRCLKEASLSLLDEEDANETAPYFDYIIKAMS
modifications: homodimer; biliverdin chromophore; smRUFP Variant Polypeptide
fluorescence change after 250 nmol BV intravenously (HT1080 tumor xenografts; after 2 h): no increase in fluorescence
fold dimmer than mCardinal in vivo (HT1080 tumor xenografts; at 607 nm): ~7.3 fold
fold dimmer than mCardinal in vivo (HT1080 tumor xenografts; at 640 nm): ~4 fold
fluorescence of excised tumors with 10 μM BV or BVMe2 (HT1080 tumor xenografts; ex vivo): enhanced fluorescence
fluorescence in tumor xenografts without exogenous BV (HT1080 tumor xenografts; mouse, in vivo): visible without exogenous BV
loss of fluorescence through the skin (HT1080 tumor xenografts; mouse, in vivo): 25%
fluorescence change after injection of 250 nmol BV or BVMe2 (HT1080 tumor xenografts; smURFP vs mCardinal tumors): no increase in fluorescence in vivo
fluorescence intensity relative to mCherry in vivo (HT1080 tumor xenografts; without exogenous BV): 35%
fluorescence when expressed in E. coli (qualitative) (Escherichia coli): greater than that of infrared FPs IFP1.4 and iRFP713
fold brighter than R1+PCB (Escherichia coli; expressed in E. coli): ~650 fold
lysosomal aggregation in neuronal culture (primary cortical neurons): not seen
